Results on 3 molecules are retold here after patent US20260132214A1 (JECHO LABORATORIES, published 2026).

Assay [1] addresses T1, Glypican 3 Protein, Human, Recombinant (His Tag) (Sino Biological, Cat #10088-H08H) (human, UniProt P51654 25-559).
T1 construct: Bought recombinant protein; also called Hu-GPC3 (10088-H08H); human GPC3; not shown: His tag
Nature of the assay: Octet QKe BLI, ratio of KDs against P17 WT.

Assay [2] addresses T1, Glypican 3 Protein, Human, Recombinant …. Nature of the assay: Octet QKe BLI, IgG on AHC probe, GPC3 (Sino Biological) in solution, 1:1 fit.
The target is the same in assay [3]. Nature of the assay: Octet QKe BLI, antibody on AHC probe, antigen in solution, 1:1 fit.
The target of assay [4] is Cy-GPC3 (GP3-C5225) (Cy (so in the source)). The description is as above.

T1 sequence (P51654 25-559 limits assumed): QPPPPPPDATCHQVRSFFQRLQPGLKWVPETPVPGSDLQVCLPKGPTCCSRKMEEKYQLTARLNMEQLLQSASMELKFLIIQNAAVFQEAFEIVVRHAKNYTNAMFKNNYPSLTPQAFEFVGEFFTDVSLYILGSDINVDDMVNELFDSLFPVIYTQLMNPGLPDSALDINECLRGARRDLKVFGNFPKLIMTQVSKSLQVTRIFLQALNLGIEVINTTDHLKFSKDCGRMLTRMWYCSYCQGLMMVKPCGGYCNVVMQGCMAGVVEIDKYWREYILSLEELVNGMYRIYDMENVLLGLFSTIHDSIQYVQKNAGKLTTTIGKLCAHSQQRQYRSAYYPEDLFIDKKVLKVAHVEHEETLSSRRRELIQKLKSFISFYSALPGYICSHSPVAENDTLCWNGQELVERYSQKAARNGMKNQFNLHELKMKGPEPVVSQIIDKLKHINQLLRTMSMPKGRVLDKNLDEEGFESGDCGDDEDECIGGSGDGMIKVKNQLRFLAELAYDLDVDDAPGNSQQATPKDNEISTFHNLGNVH

B1: P17-8E12 IgG (antibody, V domains shown)
VH: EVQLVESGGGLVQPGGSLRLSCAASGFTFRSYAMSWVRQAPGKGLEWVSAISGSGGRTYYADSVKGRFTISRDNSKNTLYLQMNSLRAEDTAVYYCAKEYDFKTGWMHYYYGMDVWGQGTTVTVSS
VL: QSVLTQPPSVSGAPGQRVTISCTGSSSGYDVHWYQQLPGRAPKLLIYGSNNRPSGVPDRFSGSNSGTSASLAITGLQAEDEADYYCQSYDSSLNAIFGGGTKLTVL
notes: IgG
For B1, in assay [1], the “fold lower KD than P17 WT” value stood at 6000 fold. Also, in assay [2], the Kd is under 0.001 nM, the koff stood at 1.79e-07 s⁻¹ and the kon worked out at 223000 M⁻¹ s⁻¹.

B2: P17-11F4 IgG (antibody, V domains shown)
VH: EVQLVESGGGLVQPGGSLRLSCAASGFTFKDYAMSWVRQAPGKGLEWVSALSGSGGATYYADSVKGRFTISRDNSKNTLYLQMNSLRAEDTAVYYCAKEMDFRYGWMHYYYGMDVWGQGTTVTVSS
VL: QSVLTQPPSVSGAPGQRVTISCTGSSSGYDVHWYQQLPGRAPKLLIYGSNNRPSGVPDRFSGSNSGTSASLAITGLQAEDEADYYCQSYDSSLNAIFGGGTKLTVL
notes: IgG
With B2, the “fold lower KD than P17 WT” value in assay [1] was 6000 fold. For the same molecule, in assay [2], the Kd is under 0.001 nM, the koff turned out to be 1.83e-07 s⁻¹ and the kon was found to be 188000 M⁻¹ s⁻¹.

B3: P10 anti-GPC3 scFv-Fc (Fc fusion)
VH: EVQLVQSGAEVKKPGSSVKVSCKASGGTFRSYAISWVRQAPGQGLEWMGGIIPIFGTANYAQKFQGRVTITADELTSTAYMELSSLRSEDTAVYYCASRIGQWPTPFDYWGQGTLVTVSS
VL: QSVLTQPPSVSVAPGKTARITCGGNNIGSKSVHWYQQKPGQAPVLVIYYDSDRPSGIPERFSGSNSGNTATLTISRVEAGDEADYYCQVWDSSSDHPVFGGGTKLTVL
notes: scFv-Fc, human IgG1 constant regions
On to B3, for which the figures for the dissociation constant (Kd) in assay [3] and in assay [4] were 2.85 nM and 1.28 nM, respectively.
